± gives the uncertainty stated by the source.
Experiment: self-splicing fitness, log relative to wild type (ln ratio); higher = more splicing; Tetrahymena group I intron in knt gene, E. coli kanamycin selection, DiMSum; sequences stand for … in CUCUCU…GGAGGGAAAAGUUAUCAGGCAUGCACCUGGUAGCUAGUCUUUAAACCAAUAGAUUGCAUCGGUUUAAAAGGCAAGACCGUCAAAUUGCGGGAAAGGGGUCAACAGCCGUUCAGUACCAAGUCUCAGGGGAAACUUUGAGAUGGCCUUGCAAAGGGUAUGGUAAUAAGCUGACGGACAUGGUCCUAACCACGCAGCCAAGUCCUAAGUCAACAGAUCUUCUGUUGAUAUGGAUGCAGUUCACAGACUAAAUGUCGGUCGGGGAAGAUGUAUUCUUCUCAUAAGAUAUAGUCGGACCUCUCCUUAAUGGGAGCUAGCGGAUGAAGUGAUGCAACACUGGAGCCGCUGGGAACUAAUUUGUAUGCGAAAGUAUAUUGAUUAGUUUUGGAGUACUCGUGGUCG
Method in brief: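 Pooled colonies went to amplicon sequencing on an Illumina HiSeq 2500 after six replicate transformations. The plates were LB agar with 100 μg/mL carbenicillin, 50 μM IPTG and 0.2% rhamnose, with or without 25 μg/mL kanamycin, incubated overnight at 37°C or 30°C. The E. coli BL21(DE3) library had all eight P1ex-region intron nucleotides randomised, the intron placed in the knt kanamycin-resistance gene on pET-22b(+). DiMSum fitness is the error-weighted combination of replicate fold changes, kanamycin against none, normalised to wild type.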

Sequence | self-splicing fitness (ln) (30 °C) | self-splicing fitness (ln) (37 °C)
CUGUAGCAAUAUUACGUUAC | -2.77 ± 0.34 | -1.72 ± 0.32
ACCAAGCAAUAUUACGAAGA | -4.11 ± 0.24 | -1.56 ± 0.14
ACACAGCAAUAUUACGGUCU | -0.341 ± 0.05 | 0.298 ± 0.067
GCACAGCAAUAUUACGUUCU | -0.579 ± 0.054 | -0.524 ± 0.068
CUGGAGCAAUAUUACGGGAG | -3.19 ± 0.28 | -0.913 ± 0.19
ACGAAGCAAUAUUACGCGUA | -1.27 ± 0.11 | -0.335 ± 0.084
GGGAAGCAAUAUUACGCCUA | -0.134 ± 0.2 | -0.887 ± 0.28
UAGCAGCAAUAUUACGCGGU | -4.14 ± 0.22 | -2.49 ± 0.17
UCGGAGCAAUAUUACGAGAU | – | -1.51 ± 0.35
ACGUAGCAAUAUUACGAACA | -1.56 ± 0.24 | -0.252 ± 0.2
GCGCAGCAAUAUUACGGUCC | -1.22 ± 0.12 | 0.23 ± 0.17
UUCUAGCAAUAUUACGGUCG | -0.638 ± 0.067 | 0.00892 ± 0.09
UUGUAGCAAUAUUACGGGAC | -0.759 ± 0.16 | -2.7 ± 0.36
AUUUAGCAAUAUUACGUUCG | -1.39 ± 0.11 | -0.0499 ± 0.13
UUCGAGCAAUAUUACGGGGU | -2.88 ± 0.35 | –
ACGGAGCAAUAUUACGUCGC | -2.93 ± 0.24 | -1.42 ± 0.18
UGAUAGCAAUAUUACGGAAA | -4.03 ± 0.43 | -2.2 ± 0.27
GUAUAGCAAUAUUACGGGGG | -3.63 ± 0.37 | -2.53 ± 0.48
UGGCAGCAAUAUUACGGGGC | -3.67 ± 0.47 | -2.18 ± 0.4
UUCAAGCAAUAUUACGGACU | -2.76 ± 0.17 | -0.504 ± 0.13
AAUCAGCAAUAUUACGUUGC | -3.97 ± 0.23 | -3.16 ± 0.22
AGGUAGCAAUAUUACGUACA | -0.927 ± 0.016 | -0.257 ± 0.034

Sequence | self-splicing fitness (ln) (30 °C) | self-splicing fitness (ln) (37 °C)
GAUUAGCAAUAUUACGUAGC | -1.74 ± 0.14 | -1.33 ± 0.18
AGAAAGCAAUAUUACGACUU | -0.252 ± 0.072 | 0.222 ± 0.1
AGUAAGCAAUAUUACGUUGA | -3.1 ± 0.23 | -2.1 ± 0.24
AUUAAGCAAUAUUACGCGGG | -2.61 ± 0.22 | -1.72 ± 0.17
UACCAGCAAUAUUACGUGUC | -2.04 ± 0.1 | -2.23 ± 0.15
CAUCAGCAAUAUUACGUGAC | -3.66 ± 0.19 | -1.2 ± 0.14
CGAUAGCAAUAUUACGUCAU | -2.2 ± 0.15 | -2.02 ± 0.18
AUCGAGCAAUAUUACGUGCC | -2.52 ± 0.2 | -2.22 ± 0.32
UACUAGCAAUAUUACGUUCG | -0.992 ± 0.077 | -0.484 ± 0.094
UCCAAGCAAUAUUACGGGGC | -4.07 ± 0.23 | -3.13 ± 0.2
GGUCAGCAAUAUUACGUCGC | -0.517 ± 0.11 | 0.282 ± 0.12
GCCGAGCAAUAUUACGGUUA | -0.775 ± 0.071 | -0.0707 ± 0.07
ACUGAGCAAUAUUACGCGGA | -1.94 ± 0.1 | -1.74 ± 0.12
AAGCAGCAAUAUUACGGCUU | -3.42 ± 0.14 | -0.925 ± 0.12
CUGAAGCAAUAUUACGAACG | 0.17 ± 0.13 | 0.661 ± 0.17
GUUUAGCAAUAUUACGUGGU | – | -1.23 ± 0.44
CGCCAGCAAUAUUACGUGUC | -3.34 ± 0.15 | -2.36 ± 0.14
GCCAAGCAAUAUUACGCGUU | -0.424 ± 0.059 | 0.358 ± 0.079
GGACAGCAAUAUUACGGGGG | -2.84 ± 0.13 | -3.18 ± 0.22
UGUGAGCAAUAUUACGCGCC | -2.07 ± 0.17 | -1.9 ± 0.38
AGAGAGCAAUAUUACGGUAG | -1.46 ± 0.12 | -2.18 ± 0.19
